The source of these data is patent CN114106166A (VIRUS DISEASE PREVENTION AND CONTROL PLACE OF CHINESE …, dated 2022).

In one assay the target is T1, 新型冠状病毒Omicron变体RBD蛋白 (SARS-CoV-2 Omicron variant, UniProt P0DTC2 319-541).
T1 construct: domain: RBD
Briefly: SPR, BIAcore 8000, RBD protein coupled to the chip, 1:1 binding fit. Background: In SPR one partner is held on a chip, and binding of the other changes the refractive index at the surface.

In the next assay the target is T2, 新型冠状病毒Delta变体RBD蛋白 (SARS-CoV-2 Delta variant, UniProt P0DTC2 319-541).
T2 construct: domain: RBD; also called 新冠Delta变体RBD蛋白
The assay is described as above.

B1: 人源抗新冠病毒中和性抗体D2 (全抗体IgG) (antibody, V domains shown)
VH: EVQLVESGGGLVQPGRSLTLSCGASGFTFEDYAMHWVRQAPGKGLEWVSGIDWNSGVIGYADSVKGRFIISRDNAKNSLYLHMRSLTAEDTALYYCAKDVYSESGSGSYYDYWGQGTLVTVSS
VL: QSVLTQPPSVSAAPGQKVAISCSGSTSNIGDNFVSWYQQFPGTAPKLLLYDDARRPSGIPDRFSGSKSGTSATLGITGLQTGDEAVYFCSTWDNSLNVVLFGGGTKLTVL
notes: also called D2号抗体; 纯化D2抗体
Broadly, the Kd is the concentration at which binding is half-saturated. Take B1: the Kd in the assay with 新型冠状病毒Omicron变体RBD蛋白 came out at 0.011 nM; in the assay with 新型冠状病毒Delta变体RBD蛋白, 0.0621 nM.
